In PMC13344369:
Read-outs that look alike come from different tables or passages of the source.

How the values were obtained:
IFN-γ (interferon gamma) [1] = biological target: T1, IFN-γ (interferon gamma) (UniProt P01579 24-161); assay: graphene-Nafion FET biosensor
IFN-γ (interferon gamma) [2] = biological target: T1, IFN-γ (interferon gamma); assay: graphene-Nafion FET biosensor; remark: listed apart in the source

T1 sequence (P01579 24-161): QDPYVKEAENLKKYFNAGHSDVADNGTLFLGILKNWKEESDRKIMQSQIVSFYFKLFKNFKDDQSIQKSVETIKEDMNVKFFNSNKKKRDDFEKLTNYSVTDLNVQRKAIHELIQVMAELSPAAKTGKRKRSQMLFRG

Q: For GGGGTTGTTTGTGTTGGGTGTTGTGT (ssDNA, 5'-NH2) [IFN-γ-specific aptamer], which Kd (IFN-γ (interferon gamma) [1]) is on record?
A: 4.39 nM

Q: What about the Kd (IFN-γ (interferon gamma) [2]) of the same binder?
A: 4.21 nM
